In publication PMC9352680, “A comprehensive thermodynamic model for RNA binding by the Saccharomyces cerevisiae Pumilio protein PUF4”:

T1: PUF4 RNA-binding domain (Saccharomyces cerevisiae, UniProt P25339 537-888)
T1 sequence: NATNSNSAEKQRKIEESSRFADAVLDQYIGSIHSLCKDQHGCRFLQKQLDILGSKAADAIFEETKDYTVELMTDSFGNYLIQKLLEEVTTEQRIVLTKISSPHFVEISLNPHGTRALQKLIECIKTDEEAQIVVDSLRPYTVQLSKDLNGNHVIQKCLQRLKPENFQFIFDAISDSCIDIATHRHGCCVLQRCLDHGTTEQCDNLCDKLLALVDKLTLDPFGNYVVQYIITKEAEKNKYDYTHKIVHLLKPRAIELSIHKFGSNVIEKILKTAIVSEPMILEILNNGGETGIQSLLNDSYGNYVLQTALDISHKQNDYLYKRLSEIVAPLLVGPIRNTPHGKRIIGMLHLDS

B1: Ib_S4_P3E.1_K3.1_C3.1_H3.1_[A4C]_A3.1_[T5C]_F3.1_T3.1 (ssRNA)
RNA: UUUGACAACUGAUCGUUCUUUCUUGUCCAUAUUCUUUCUCGAUCAGUUGUCUUU
B2: Ib_S4_P3E.1_K3.1_C3.1_H3.1_[A4C]_A3.1_[A6G]_F3.1_T3.1 (ssRNA)
RNA: UUUGACAACUGAUCGUUCUUUCUUGUCUGUAUUCUUUCUCGAUCAGUUGUCUUU
B3: Ia_S4_P3E.1_K3.1_C3.1_H3.1_A3.1_F3.1_[A8G]_T3.1 (ssRNA)
RNA: UUUGACAACUGAUCGUUCUUUCUUGUAUAUGUUCUUUCUCGAUCAGUUGUCUUU
B4: Ib_S4_P3E.1_K3.1_C3.1_H3.1_[A4G]_A3.1_[A6C]_F3.1_T3.1 (ssRNA)
RNA: UUUGACAACUGAUCGUUCUUUCUUGUGUCUAUUCUUUCUCGAUCAGUUGUCUUU
B5: Ib_S4_P3E.1_K3.1_C3.1_H3.1_[A4C]_A3.1_[A6C]_F3.1_T3.1 (ssRNA)
RNA: UUUGACAACUGAUCGUUCUUUCUUGUCUCUAUUCUUUCUCGAUCAGUUGUCUUU
B6: Ia_S4_P3E.1_K3.1_C3.1_H3.1_[T1A]_A3.1_F3.1_T3.1 (ssRNA)
RNA: UUUGACAACUGAUCGUUCUUUCUAGUAUAUAUUCUUUCUCGAUCAGUUGUCUUU
B7: Ib_S4_P3E.1_K3.1_C3.1_H3.1_[A4C]_A3.1_[A6T]_F3.1_T3.1 (ssRNA)
RNA: UUUGACAACUGAUCGUUCUUUCUUGUCUUUAUUCUUUCUCGAUCAGUUGUCUUU
B8: Ib_S4_P3E.1_K3.1_C3.1_H3.1_[A4G]_A3.1_[A6T]_F3.1_T3.1 (ssRNA)
RNA: UUUGACAACUGAUCGUUCUUUCUUGUGUUUAUUCUUUCUCGAUCAGUUGUCUUU
B9: Ib_S4_P3E.1_K3.1_C3.1_H3.1_A3.1_[T5C]_[A6C]_F3.1_T3.1 (ssRNA)
RNA: UUUGACAACUGAUCGUUCUUUCUUGUACCUAUUCUUUCUCGAUCAGUUGUCUUU
B10: Ia_S4_P3E.1_K3.1_C3.1_H3.1_[T1G]_A3.1_F3.1_T3.1 (ssRNA)
RNA: UUUGACAACUGAUCGUUCUUUCUGGUAUAUAUUCUUUCUCGAUCAGUUGUCUUU
B11: Ia_S4_P3E.1_K3.1_C3.1_H3.1_A3.1_F3.1_[A8C]_T3.1 (ssRNA)
RNA: UUUGACAACUGAUCGUUCUUUCUUGUAUAUCUUCUUUCUCGAUCAGUUGUCUUU
B12: Ib_S4_P3E.1_K3.1_C3.1_H3.1_[A4C]_A3.1_[T5A]_F3.1_T3.1 (ssRNA)
RNA: UUUGACAACUGAUCGUUCUUUCUUGUCAAUAUUCUUUCUCGAUCAGUUGUCUUU
B13: Ic_S4_P3E.1_K3.1_C3.1_H3.1_A3.1_[T5C]_[A6T]_F3.1_T3.1 (ssRNA)
RNA: UUUGACAACUGAUCGUUCUUUCUUGUACUUAUUCUUUCUCGAUCAGUUGUCUUU
B14: Ib_S4_P4E.1_K4.1_C4.1_H4.1_A4.1_F4.1_[T8G]_[A9C]_T4.1 (ssRNA)
RNA: UUUGACAACUGAUCGUUCUUUCUUGUAUAUGCUUCUUUCUCGAUCAGUUGUCUUU
B15: Ib_S4_P4E.1_K4.1_C4.1_H4.1_A4.1_F4.1_[T8A]_[A9G]_T4.1 (ssRNA)
RNA: UUUGACAACUGAUCGUUCUUUCUUGUAUAUAGUUCUUUCUCGAUCAGUUGUCUUU
B16: Ib_S4_P4E.1_K4.1_C4.1_H4.1_A4.1_[T7G]_F4.1_[T8C]_T4.1 (ssRNA)
RNA: UUUGACAACUGAUCGUUCUUUCUUGUAUAGCAUUCUUUCUCGAUCAGUUGUCUUU
B17: Ib_S4_P4E.1_K4.1_C4.1_H4.1_[T1A]_A4.1_F4.1_[A9G]_T4.1 (ssRNA)
RNA: UUUGACAACUGAUCGUUCUUUCUAGUAUAUUGUUCUUUCUCGAUCAGUUGUCUUU
B18: Ib_S4_P4E.1_K4.1_C4.1_H4.1_[G2C]_A4.1_F4.1_[A9C]_T4.1 (ssRNA)
RNA: UUUGACAACUGAUCGUUCUUUCUUCUAUAUUCUUCUUUCUCGAUCAGUUGUCUUU
B19: Ib_S4_P4E.1_K4.1_C4.1_H4.1_[T1C]_A4.1_F4.1_[T8C]_T4.1 (ssRNA)
RNA: UUUGACAACUGAUCGUUCUUUCUCGUAUAUCAUUCUUUCUCGAUCAGUUGUCUUU
B20: Ib_S4_P4E.1_K4.1_C4.1_H4.1_[A4C]_A4.1_F4.1_[A9C]_T4.1 (ssRNA)
RNA: UUUGACAACUGAUCGUUCUUUCUUGUCUAUUCUUCUUUCUCGAUCAGUUGUCUUU
B21: Ib_S4_P4E.1_K4.1_C4.1_H4.1_[G2A]_A4.1_F4.1_[A9G]_T4.1 (ssRNA)
RNA: UUUGACAACUGAUCGUUCUUUCUUAUAUAUUGUUCUUUCUCGAUCAGUUGUCUUU
B22: Ib_S4_P4E.1_K4.1_C4.1_H4.1_A4.1_[A6T]_F4.1_[T8C]_T4.1 (ssRNA)
RNA: UUUGACAACUGAUCGUUCUUUCUUGUAUUUCAUUCUUUCUCGAUCAGUUGUCUUU
B23: Ib_S4_P4E.1_K4.1_C4.1_H4.1_[A4C]_A4.1_F4.1_[A9G]_T4.1 (ssRNA)
RNA: UUUGACAACUGAUCGUUCUUUCUUGUCUAUUGUUCUUUCUCGAUCAGUUGUCUUU
B24: Ib_S4_P4E.1_K4.1_C4.1_H4.1_A4.1_[T5A]_F4.1_[T8A]_T4.1 (ssRNA)
RNA: UUUGACAACUGAUCGUUCUUUCUUGUAAAUAAUUCUUUCUCGAUCAGUUGUCUUU
B25: Ib_S4_P4E.1_K4.1_C4.1_H4.1_[T3C]_A4.1_F4.1_[A9T]_T4.1 (ssRNA)
RNA: UUUGACAACUGAUCGUUCUUUCUUGCAUAUUUUUCUUUCUCGAUCAGUUGUCUUU
B26: Ib_S4_P4E.1_K4.1_C4.1_H4.1_[T1C]_A4.1_F4.1_[A9C]_T4.1 (ssRNA)
RNA: UUUGACAACUGAUCGUUCUUUCUCGUAUAUUCUUCUUUCUCGAUCAGUUGUCUUU
B27: Ib_S4_P4E.1_K4.1_C4.1_H4.1_[T1G]_A4.1_F4.1_[T8A]_T4.1 (ssRNA)
RNA: UUUGACAACUGAUCGUUCUUUCUGGUAUAUAAUUCUUUCUCGAUCAGUUGUCUUU
B28: Ib_S4_P4E.1_K4.1_C4.1_H4.1_[T1G]_A4.1_F4.1_[T8C]_T4.1 (ssRNA)
RNA: UUUGACAACUGAUCGUUCUUUCUGGUAUAUCAUUCUUUCUCGAUCAGUUGUCUUU
B29: Ib_S4_P4E.1_K4.1_C4.1_H4.1_[T1G]_A4.1_F4.1_[A9G]_T4.1 (ssRNA)
RNA: UUUGACAACUGAUCGUUCUUUCUGGUAUAUUGUUCUUUCUCGAUCAGUUGUCUUU
B30: Ic_S4_P4E.1_K4.1_C4.1_H4.1_A4.1_F4.1_[T8A]_[A9C]_T4.1 (ssRNA)
RNA: UUUGACAACUGAUCGUUCUUUCUUGUAUAUACUUCUUUCUCGAUCAGUUGUCUUU
B31: Ib_S4_P4E.1_K4.1_C4.1_H4.1_A4.1_[A6C]_F4.1_[T8C]_T4.1 (ssRNA)
RNA: UUUGACAACUGAUCGUUCUUUCUUGUAUCUCAUUCUUUCUCGAUCAGUUGUCUUU
B32: Ib_S4_P4E.1_K4.1_C4.1_H4.1_[A4C]_A4.1_F4.1_[T8A]_T4.1 (ssRNA)
RNA: UUUGACAACUGAUCGUUCUUUCUUGUCUAUAAUUCUUUCUCGAUCAGUUGUCUUU
B33: Ib_S4_P4E.1_K4.1_C4.1_H4.1_[T3C]_A4.1_F4.1_[A9C]_T4.1 (ssRNA)
RNA: UUUGACAACUGAUCGUUCUUUCUUGCAUAUUCUUCUUUCUCGAUCAGUUGUCUUU
B34: Ib_S4_P4E.1_K4.1_C4.1_H4.1_[A4G]_A4.1_F4.1_[T8C]_T4.1 (ssRNA)
RNA: UUUGACAACUGAUCGUUCUUUCUUGUGUAUCAUUCUUUCUCGAUCAGUUGUCUUU
B35: Ib_S4_P4E.1_K4.1_C4.1_H4.1_[G2C]_A4.1_F4.1_[T8C]_T4.1 (ssRNA)
RNA: UUUGACAACUGAUCGUUCUUUCUUCUAUAUCAUUCUUUCUCGAUCAGUUGUCUUU
B36: Ib_S4_P4E.1_K4.1_C4.1_H4.1_[T3C]_A4.1_F4.1_[A9G]_T4.1 (ssRNA)
RNA: UUUGACAACUGAUCGUUCUUUCUUGCAUAUUGUUCUUUCUCGAUCAGUUGUCUUU
B37: Ib_S4_P4E.1_K4.1_C4.1_H4.1_[A4G]_A4.1_F4.1_[T8A]_T4.1 (ssRNA)
RNA: UUUGACAACUGAUCGUUCUUUCUUGUGUAUAAUUCUUUCUCGAUCAGUUGUCUUU
B38: Ib_S4_P4E.1_K4.1_C4.1_H4.1_A4.1_[A6G]_F4.1_[T8C]_T4.1 (ssRNA)
RNA: UUUGACAACUGAUCGUUCUUUCUUGUAUGUCAUUCUUUCUCGAUCAGUUGUCUUU
B39: Ib_S4_P4E.1_K4.1_C4.1_H4.1_[A4T]_A4.1_F4.1_[A9C]_T4.1 (ssRNA)
RNA: UUUGACAACUGAUCGUUCUUUCUUGUUUAUUCUUCUUUCUCGAUCAGUUGUCUUU
B40: Ib_S4_P4E.1_K4.1_C4.1_H4.1_A4.1_[T5C]_F4.1_[T8C]_T4.1 (ssRNA)
RNA: UUUGACAACUGAUCGUUCUUUCUUGUACAUCAUUCUUUCUCGAUCAGUUGUCUUU
B41: Ib_S4_P4E.1_K4.1_C4.1_H4.1_A4.1_F4.1_[T8C]_[A9G]_T4.1 (ssRNA)
RNA: UUUGACAACUGAUCGUUCUUUCUUGUAUAUCGUUCUUUCUCGAUCAGUUGUCUUU
B42: Ib_S4_P4E.1_K4.1_C4.1_H4.1_A4.1_[T7A]_F4.1_[T8C]_T4.1 (ssRNA)
RNA: UUUGACAACUGAUCGUUCUUUCUUGUAUAACAUUCUUUCUCGAUCAGUUGUCUUU
B43: Ib_S4_P4E.1_K4.1_C4.1_H4.1_A4.1_[T7A]_F4.1_[T8A]_T4.1 (ssRNA)
RNA: UUUGACAACUGAUCGUUCUUUCUUGUAUAAAAUUCUUUCUCGAUCAGUUGUCUUU
B44: Ib_S4_P4E.1_K4.1_C4.1_H4.1_A4.1_[T5A]_F4.1_[T8C]_T4.1 (ssRNA)
RNA: UUUGACAACUGAUCGUUCUUUCUUGUAAAUCAUUCUUUCUCGAUCAGUUGUCUUU
B45: Ib_S4_P4E.1_K4.1_C4.1_H4.1_[T1A]_A4.1_F4.1_[T8A]_T4.1 (ssRNA)
RNA: UUUGACAACUGAUCGUUCUUUCUAGUAUAUAAUUCUUUCUCGAUCAGUUGUCUUU
B46: Ib_S4_P4E.1_K4.1_C4.1_H4.1_A4.1_[T7C]_F4.1_[T8A]_T4.1 (ssRNA)
RNA: UUUGACAACUGAUCGUUCUUUCUUGUAUACAAUUCUUUCUCGAUCAGUUGUCUUU
B47: Ib_S4_P4E.1_K4.1_C4.1_H4.1_[A4G]_A4.1_F4.1_[A9C]_T4.1 (ssRNA)
RNA: UUUGACAACUGAUCGUUCUUUCUUGUGUAUUCUUCUUUCUCGAUCAGUUGUCUUU
B48: Ib_S4_P4E.1_K4.1_C4.1_H4.1_[A4C]_A4.1_F4.1_[A9T]_T4.1 (ssRNA)
RNA: UUUGACAACUGAUCGUUCUUUCUUGUCUAUUUUUCUUUCUCGAUCAGUUGUCUUU

The binders below were run against T1, PUF4 RNA-binding domain (assay: Mg; RNA-MaP; 20 mM Na-HEPES pH 7.4, 30 mM KOAc, 0.75 mM MgCl2, 0.1% Tween-20, 5% glycerol, 0.1 mg/mL BSA, 2 mM DTT; 25 C; 0.0125-409.6 nM protein). Details: tags: N-His6-TEV cleaved; C-SNAP kept, Cy3B-labelled; label: tethered on chip by stalled RNA polymerase.

Row | Binder | Kd [nM]
1 | B1 | 443
2 | B2 | 40.5
3 | B3 | 8.32
4 | B4 | 117
5 | B5 | 1370
6 | B6 | 819
7 | B7 | 1140
8 | B8 | 92.3
9 | B9 | 14.8
10 | B10 | 1280
11 | B11 | 12.3
12 | B12 | 1450
13 | B13 | 16.8
14 | B14 | 20.6
15 | B15 | 9.97
16 | B16 | 51.1
17 | B17 | 2230
18 | B18 | 1530
19 | B19 | 652
20 | B20 | 501
21 | B21 | 329
22 | B22 | 84.2
23 | B23 | 252
24 | B24 | 27.4

Row | Binder | Kd [nM]
25 | B25 | 1000
26 | B26 | 1020
27 | B27 | 1410
28 | B28 | > 2300
29 | B29 | 1710
30 | B30 | 6.29
31 | B31 | 22.1
32 | B32 | 458
33 | B33 | > 2300
34 | B34 | 24.4
35 | B35 | 666
36 | B36 | > 2300
37 | B37 | 6.19
38 | B38 | 136
39 | B39 | 406
40 | B40 | 8.87
41 | B41 | 17.1
42 | B42 | 19.6
43 | B43 | 29.8
44 | B44 | 78.4
45 | B45 | 1680
46 | B46 | 18.4
47 | B47 | 12.1
48 | B48 | 268
